Test results reported in paper PMC4710668, “Bioactivation of food genotoxicants 5-hydroxymethylfurfural and furfuryl alcohol by sulfotransferases from human, mouse and rat: a comparative study” (Archives of Toxicology, 2014).

Experiments:
Test in all cases: HMF sulfoconjugation assay
Details in all cases: other: catalytic efficiency of HMF sulfoconjugation; pH 7.4
[1] = substrate: O=Cc1ccc(CO)o1; assay type: biochemical, rat
Protocol: (§1) Cytosolic fractions containing individual SULT forms were prepared from transgenic S. typhimurium TA1538. Table S1 in the Supplementary Material provides a summary of the thirty SULTs used in the current study together with references describing the cloning of the respective S. typhimurium TA1538 strains. The expressed SULT forms are denoted with the prefixes h, m and r for human, mouse and rat enzymes, respectively. Bacteria were grown in Luria Broth medium containing ampicillin (100 µg/ml) by stirring for 8 h at 200 revolutions/min at 37 °C. The bacterial suspensions were centrifuged at 5,000 g for 10 min. […] The protein concentrations were determined according to a bicinchoninic acid (BCA) assay protocol. […]
(§2) The reactions were conducted in mixtures of 100 µl containing 25–200 µg protein, 50 mM potassium phosphate buffer (pH 7.4), 5 mM MgCl2, 50 µM PAPS and different concentrations of HMF at 37 °C. Preliminary experiments ensured that measurements were recorded under ‘linear’ conditions, i.e., doubling of protein concentration or incubation time was doubling the amount of sulfate ester formed. […]
(§3) SMF concentrations of the clear supernatants were analyzed by UPLC-MS/MS. The protocol was adapted from the quantification of SMF in plasma samples of HMF-treated mice (Monien et al. [2009]). […]

[2] = substrate: O=Cc1ccc(CO)o1; assay type: biochemical, human
Protocol: Cytosolic fractions containing individual SULT forms were prepared from transgenic S. typhimurium TA1538. Table S1 in the Supplementary Material provides a summary of the thirty SULTs used in the current study together with references describing the cloning of the respective S. typhimurium TA1538 strains. The expressed SULT forms are denoted with the prefixes h, m and r for human, mouse and rat enzymes, respectively. Bacteria were grown in Luria Broth medium containing ampicillin (100 µg/ml) by stirring for 8 h at 200 revolutions/min at 37 °C. The bacterial suspensions were centrifuged at 5,000 g for 10 min. The sediments were washed twice with 25 ml of 10 mM potassium phosphate buffer (pH 7.4)/50 mM potassium chloride (KCP buffer) and centrifuged again. The pellets were taken up in 800 µl KCP buffer and sonicated thrice for 15 s with 30 s pauses in between. The soluble fraction was attained by centrifuging for 1 h at 100,000 g. The supernatants (in the following termed cytosolic preparations) were frozen at −80 °C. The protein concentrations were determined according to a bicinchoninic acid (BCA) assay protocol. The SULT concentrations in the cytosolic preparations were estimated after electrophoretic separation and immunodetection using inclusion bodies of different SULT forms as standards (Teubner et al. [2007]). The preparation of SULT inclusion bodies and the immunodetection of SULTs is described in the Supplementary Material, which also contains a representative immunoblot of different amounts of rSult1a1standard and a cytosolic preparation of S. typhimurium expressing rSult1a1 (Fig. S1).
as §2
SMF concentrations of the clear supernatants were analyzed by UPLC-MS/MS. The protocol was adapted from the quantification of SMF in plasma samples of HMF-treated mice (Monien et al. [2009]). In short, the supernatants were analyzed using a UPLC system (Waters) connected to a Quattro Premier XE tandem quadrupole mass spectrometer (Waters) using the negative electrospray ionization mode. […] The fragmentation reactions of SMF yielding two principal ions, the sulfate ion radical (m/z = 204.9 → 96.0) and the protonated sulfonate ion (m/z = 204.9 → 81.0) were monitored. […] SMF was quantified using an external calibration line that was linear in the concentration range of 1.0 nM (4 fmol/injection) to 2,500 (10 pmol/injection) SMF (r ^2 ≥ 0.99). […]

[3] = substrate: O=Cc1ccc(CO)o1; assay type: biochemical, mouse
Protocol: as §1, §2, §3

Protein	kcat/Km [2]	other results
rSult1a1 (Rattus norvegicus) (protein, made in house; host or cells: Salmonella typhimurium TA1538 (cytosolic fraction, enzyme not purified)) MEFSRPPLVHVKGIPLIKYFAETIGPLQNFTAWPDDLLISTYPKSGTTWMSEILDMIYQGGKLEKCGRAPIYARVPFLEFKCPGVPSGLETLEETPAPRLLKTHLPLSLLPQSLLDQKVKVIYIARNAKDVVVSYYNFYNMAKLHPDPGTWDSFLENFMDGEVSYGSWYQHVKEWWELRHTHPVLYLFYEDIKENPKREIKKILEFLGRSLPEETVDSIVHHTSFKKMKENCMTNYTTIPTEIMDHNVSPFMRKGTTGDWKNTFTVAQNERFDAHYAKTMTDCDFKFRCEL		kcat/Km [1]: 5.3 M⁻¹ s⁻¹
hSULT1A2 (Homo sapiens) (protein, made in house; host or cells: Salmonella typhimurium TA1538 (cytosolic fraction, not purified)) MELIQDISRPPLEYVKGVPLIKYFAEALGPLQSFQARPDDLLISTYPKSGTTWVSQILDMIYQGGDLEKCHRAPIFMRVPFLEFKVPGIPSGMETLKNTPAPRLLKTHLPLALLPQTLLDQKVKVVYVARNAKDVAVSYYHFYHMAKVYPHPGTWESFLEKFMAGEVSYGSWYQHVQEWWELSRTHPVLYLFYEDMKENPKREIQKILEFVGRSLPEETVDLMVEHTSFKEMKKNPMTNYTTVRREFMDHSISPFMRKGMAGDWKTTFTVAQNERFDADYAKKMAGCSLSFRSEL	0.71 M⁻¹ s⁻¹	
hSULT1A1 (Homo sapiens) (protein, made in house; host or cells: Salmonella typhimurium TA1538 (cytosolic fraction, not purified)) MELIQDTSRPPLEYVKGVPLIKYFAEALGPLQSFQARPDDLLISTYPKSGTTWVSQILDMIYQGGDLEKCHRAPIFMRVPFLEFKAPGIPSGMETLKDTPAPRLLKTHLPLALLPQTLLDQKVKVVYVARNAKDVAVSYYHFYHMAKVHPEPGTWDSFLEKFMVGEVSYGSWYQHVQEWWELSRTHPVLYLFYEDMKENPKREIQKILEFVGRSLPEETVDFVVQHTSFKEMKKNPMTNYTTVPQEFMDHSISPFMRKGMAGDWKTTFTVAQNERFDADYAEKMAGCSLSFRSEL	13.7 M⁻¹ s⁻¹	
mSult1d1 (Mus musculus) (protein, made in house; host or cells: Salmonella typhimurium TA1538 (cytosolic fraction, enzyme not purified)) MDNKLDVFRRELVDVEGIPLFWSIAEHWSQVESFEARPDDILISTYPKSGTTWVSEILDLIYNNGDAEKCKRDAIYKRVPFMELIIPGITNGVEMLNNMPSPRIVKTHLPVQLLPSSFWKNDCKIIYVARNAKDVVVSYYYFYQMAKIHPEPGTWEEFLEKFMAGQVSFGPWYDHVKSWWEKRKEYRILYLFYEDMKENPKCEIQKILKFLEKDIPEEILNKILYHSSFSVMKENPSANYTTMMKEEMDHSVSPFMRKGISGDWKNQFTVAQYEKFEEDYVKKMEDSTLKFRSEI		kcat/Km [3]: 4.8 M⁻¹ s⁻¹
hSULT1A3 (Homo sapiens) (protein, made in house; host or cells: Salmonella typhimurium TA1538 (cytosolic fraction, not purified)) MELIQDTSRPPLEYVKGVPLIKYFAEALGPLQSFQARPDDLLINTYPKSGTTWVSQILDMIYQGGDLEKCNRAPIYVRVPFLEVNDPGEPSGLETLKDTPPPRLIKSHLPLALLPQTLLDQKVKVVYVARNPKDVAVSYYHFHRMEKAHPEPGTWDSFLEKFMAGEVSYGSWYQHVQEWWELSRTHPVLYLFYEDMKENPKREIQKILEFVGRSLPEETMDFMVQHTSFKEMKKNPMTNYTTVPQELMDHSISPFMRKGMAGDWKTTFTVAQNERFDADYAEKMAGCSLSFRSEL	0.26 M⁻¹ s⁻¹	
rSult1c1 (Rattus norvegicus) (protein, made in house; host or cells: Salmonella typhimurium TA1538 (cytosolic fraction, enzyme not purified)) MSLEKMKDLHLGEQDLQPETREVNGILMSKLMSDNWDKIWNFQAKPDDLLIATYAKAGTTWTQEIVDMIQNDGDVQKCQRANTYDRHPFIEWTLPSPLNSGLDLANKMPSPRTLKTHLPVHMLPPSFWKENSKIIYVARNAKDCLVSYYYFSRMNKMLPDPGTLGEYIEQFKAGKVLWGSWYDHVKGWWDVKDQHRILYLFYEDMKEDPKREIKKIAKFLEKDISEEVLNKIIYHTSFDVMKENPMANYTTLPSSIMDHSISPFMRKGMPGDWKNYFTVAQSEDFDEDYRRKMAGSNITFRTEI		kcat/Km [1]: 0.12 M⁻¹ s⁻¹
hSULT1C2 (Homo sapiens) (protein, made in house; host or cells: Salmonella typhimurium TA1538 (cytosolic fraction, not purified)) MALHDMEDFTFDGTKRLSVNYVKGILQPTDTCDIWDKIWNFQAKPDDLLISTYPKAGTTWTQEIVELIQNEGDVEKSKRAPTHQRFPFLEMKIPSLGSGLEQAHAMPSPRILKTHLPFHLLPPSLLEKNCKIIYVARNPKDNMVSYYHFQRMNKALPAPGTWEEYFETFLAGKVCWGSWHEHVKGWWEAKDKHRILYLFYEDMKKNPKHEIQKLAEFIGKKLDDKVLDKIVHYTSFDVMKQNPMANYSSIPAEIMDHSISPFMRKGAVGDWKKHFTVAQNERFDEDYKKKMTDTRLTFHFQF	0.73 M⁻¹ s⁻¹	
mSult1a1 (Mus musculus) (protein, made in house; host or cells: Salmonella typhimurium TA1538 (cytosolic fraction, enzyme not purified)) MEPLRKPLVPVKGIPLIKYFAETMEQLQNFTAWPDDVLISTYPKSGTNWMSEIMDMIYQGGKLDKCGRAPVYARIPFLEFSCPGVPPGLETLKETPAPRIIKTHLPLSLLPQSLLDQKIKVIYVARNAKDVVVSYYNFYKMAKLHPDPGTWESFLENFMDGKVSYGSWYQHVKEWWELRRTHPVLYLFYEDMKENPKREIKKILEFLGRSLPEETVDLIVHHTSFKKMKENPMANYTTIPTEVMDHTIYPFMRKGTIGDWKNTFTVAQSEHFDAHYAKLMTGCDFTFRCQI		kcat/Km [3]: 15.8 M⁻¹ s⁻¹
